Laboratory results from patent US20030124590A1, “Carbohydrate response element binding protein and uses thereof” (priority 2001, published 2003).
No end group written: not given here.

Columns and labels:
L-PK gene [1] = assay: Glucose-induced L-PK transcription (luciferase) in ChREBP overexpressed hepatocytes with fatty acids or AICAR; type: cell-based, rat; details: 27.5 mM glucose
Experimental: After a six h attachment period, hepatocytes were transfected using synthetic liposome (Lipofectamine 2000; Life Technologies) in Opti-MEM I reduced serum medium as described (Yamashita et al. Proc. Natl. Acad. Sci. USA 98, 9116-9121) and incubated for 12 h. As a control, hepatocytes were exposed to synthetic liposome in the same manner as each experimental group. […] The source of albumin for all studies was essentially fatty acid-free bovine serum albumin. Transfected cells were cultured for 12 h in culture medium containing 27.5 mM glucose plus 150 μM albumin-bound specific fatty acids or AICAR, washed twice with 2 ml Ca2+- and Mg2+-free phosphate-buffered saline, and lysed with Passive lysis buffer (Promega). Firefly luciferase and renilla (sea pansy) luciferase activities were measured sequentially using a Dual-Luciferase Reporter assay system (Promega) and a model TD-20E Luminometer (Turner Design, Sunnyvale, Calif.). After measuring the firefly luciferase signal and the renilla luciferase signal, the index of relative luciferase activity, indicating L-PK transcription activity, was calculated according to manufacturer's instructions (Promega).

L-PK gene [2] = assay: L-PK promoter luciferase reporter in ChREBP-transfected primary hepatocytes with kinase/phosphatase inhibitors or db-cAMP; details: for transcriptional activity of the L-PK gene in ChREBP-overexpressed hepatocytes: 5.5 and 27.5 mM glucose, 12 h, 10 μM H-89, 500 nM cantharidic acid, 5 μM KN-62, 30 μM PD98059, 50 μM Genistein
Experimental: Primary hepatocytes were prepared from male Sprague-Dawley rats using the collagenase (Life Technologies, Inc.) perfusion method (Berry and Friend (1969) J Cell Bio […], 506-520) and plated in collagen-coated six-well tissue culture plates (Primaria Falcon, Franklin Lakes, N.J.) at a density of 1×10^6 cells/well in glucose-free Dulbecco's modified Eagle's medium (Life Technologies, Inc.) supplemented with 100 nM dexamethasone, 10 nM insulin, 100 units/ml penicillin, 100 μg/ml streptomycin and 10% dialyzed fetal bovine serum (Life Technologies, Inc.). Following attachment, synthetic liposomes were used to transfect hepatocytes with 0.5 μg of the luciferase reporter plasmid and 0.1 μg of the internal control plasmid pRL-TK. After 14 h the media was replaced by Dulbecco's modified Eagle medium supplemented with 100 nM dexamethasone, 10 nM insulin, 10% Fetal Bovine Serum and either 10 mM lactate, 5.5 mM glucose or 27.5 mM glucose. The cells were incubated for an additional 12 h prior to determination of luciferase activity using the Dual-Luciferase Reporter Assay System (Promega).
Protein Kinase and Protein Phosphatase Inhibitors—Prior to exchange to 5.5 or 27.5 mM glucose medium, transfected primary culture hepatocytes were treated for 1 h with 10 μM H-89, 500 nM cantharidic acid (Calbiochem), 5 μM KN-62 (Calbiochem), 30 μM PD98059 (Calbiochem), 50 μM Genistein, or dimethylsulfoxide vehicle.
Rat primary cultured hepatocytes were transfected a plasmid comprising a gene encoding the wild type (WT)-ChREBP. H-89, cantharidic acid, or dimethylsulfoxide vehicle was added, and the cells were incubated in 5.5 mM (□) or 27.5 mM (▪) glucose for 12 h.
Rat primary cultured hepatocytes were transfected with wild type (WT)-ChREBP, S626A, S626D, T666A, or T666D. After transfection, the cells were incubated in 5.5 mM (□) or 27.5 mM (▪) glucose for 12 h. […] Rat primary cultured hepatocytes were transfected with wild type (WT)-ChREBP, S196A+S626A, or S196A+T666A. After transfection, cells were incubated under 5.5 mM (□) or 27.5 mM (▪) glucose, and cAMP was added both low and high glucose.

GFP-fused ChREBP = assay: Subcellular localization of GFP-fused ChREBP in primary hepatocytes (confocal microscopy); type: cell-based, rat; details: 12 h
Experimental: Determination of Subcellular Localization of ChREBP—Subcellular localization of GFP-fused WT-ChREBP or its mutants was determined using a confocal laser scanning microscope (Bio Rad, Hercules, Calif.). In order to quantitate nuclear localization of ChREBP, for each condition, 100 transfected hepatocytes from 5 independent experiments were scored in a blinded fashion as to whether the GFP-fused ChREBP was predominantly nuclear or cytoplasmic. The identity of the nucleus was verified by comparative phase-contrast microscopy. B. Results
Rat primary cultured hepatocytes were transfected with a plasmid comprising a gene encoding the GFP-fused wild type-ChREBP or NLS domain deletion mutants. […] The values are expressed as mean±SE. *P<0.05 compared to that of wild type-ChREBP.

[3] = target: T1, nuclear Xu-5-P activated PPase (Rattus norvegicus, UniProt P63331); assay: Protein phosphatase assay, nuclear Xu-5-P activated PPase of liver; type: biochemical; details: for inhibition of nuclear PPase (in words): 500 nM cantharidic acid, 300 nM deltamethrin; for Nuclear PPase activity, +Xu5P / Nuclear PPase activity, None: Mono Q purified, phosphorylated peptide as substrate; for Nuclear PPase activity, None: absence of Xu-5-P
T1 construct: from tissue; host or cells: rat liver nuclear extract, DEAE-cellulose then Mono Q
Experimental: Liver nuclear extracts were prepared as described in Example 1.
(§1) Synthetic peptides corresponding to amino acids #187-201 ([…] “P1” peptide) (SEQ ID NO:64), #556-573 ([…], “P4” peptide) (SEQ ID NO:65), and #655-674 ([…]; “P3” peptide) (SEQ ID NO:66), of ChREBP were prepared by the Peptide Synthesis Service of University of Texas Southwestern Medical Center. These peptides were phosphorylated by 10 U of PKA for 6 h at 30° C. P4 peptide corresponding to 556-573 ([…]) (SEQ ID NO:65), was phosphorylated by 10 U of AMPK for 5 h at 30° C. The reaction mixtures were passed through on a Dowex AG1X8 column (0.5 cm×5 cm) which had been equilibrated with 30% acetic acid to remove residual [^32P]-ATP. The labeled peptides in the pass through fraction were lyophilized.
(§2) Protein phosphatase activity was determined by the method of Deana et al (Deana et al. (1990) Biochem, Biophys. Acta. 1051: 199-202). The reaction mixture contained in a final volume of 50 μ1,20 mM MOPS, pH 7.0, 1 mM DTT, 25 μg of BSA, and ^32P-labeled substrate for 15 min at 30° C. The reaction was terminated by the addition of 10% trichloroacetic acid. Phosphate released was converted to a phosphomolybdic complex followed by organic solvent (isobutyl alcohol:heptane, 1:1) extraction of the complex. The reaction mixture was mixed thoroughly and centrifuged. An aliquot of the top layer was then added to 5 ml scintillation fluid and counted. One unit of protein phosphatase is defined as that amount which catalyzes the release of 1.0 μmol of ^32P/min at 30° C.
(§3) These peptides were assayed with Mono Q purified cytosolic and nuclear PPases in the presence and absence of 50 μM Xu-5-P.

[4] = target: T2, cytosolic Xu-5-P activated PPase (Rattus norvegicus, UniProt P63331); assay: Protein phosphatase assay, cytosolic Xu-5-P activated PPase of liver; type: biochemical; details: for inhibition of cytosolic Xu-5-P activated PPase (in words): okadaic acid 10 nM (absence and presence of Xu-5-P), cantharidic acid 500 nM, deltamethrin 300 nM; for Cytosol. PPase activity, +Xu5P / Cytosol. PPase activity, None: Mono Q purified, phosphorylated peptide as substrate; for Cytosol. PPase activity, None: absence of Xu-5-P
T2 construct: from tissue; host or cells: rat liver cytosolic extract, DEAE-cellulose then Mono Q
Experimental: Liver was homogenized in a motor-driven Potter-Elvehjem homogenizer in 1 volume of extraction buffer containing 10 mM Hepes (pH 7.9), 10 mM KCl, 0.1 mM EDTA, 0.74 mM spermidine, 0.25 M sucrose, 50 mM imidazole, 1 mM dithiothreitol (DTT), 4 mM phenylmethanesulfonyl fluoride, and 1 mM benzamidine, and the extract was centrifuged at 10,000×g for 30 min.
as §1, §2, §3

cultured hepatocytes = assay: AMP, ADP, ATP assays in cultured hepatocytes; type: cell-based, rat; details: hepatocytes 12 h with 150 µM fatty acid, mean±S.E., n=4
Experimental: Hepatocytes were scraped and collected directly into 0.5 ml of ice-cold 6% (v/v) HClO4. The concentrations of ADP and ATP were determined enzymatically in the acid-extract with methods described (Kawaguchi, T., Veech, R. L., and Uyeda, K. (2001) J. Biol. Chem. 276, 28554-28561), and the cytosolic AMP was calculated by the method of Veech et al. (Veech, R. L., Lawson, J. W., Cornell, N. W., and Krebs, H. A. (1979) J. Biol. Chem. 254, 6538-6547).
Values are expressed as mean±S.E. (n=4).

[5] = target: ChREBP (Carbohydrate Response Element Binding Protein) from rat liver (rat) (UniProt Q8VIP2); assay: cell-based or functional assay
[6] = tested on: T3, P1 peptide of ChREBP (amino acids #187-201), phosphorylated by PKA
T3 sequence: YYKKRLRKSSREGDF

[7] = tested on: T4, P4 peptide of ChREBP (amino acids #556-573), phosphorylated by AMPK
T4 sequence: STVPSTLLRPPESPDAVP

[8] = tested on: T5, P3 peptide of ChREBP (amino acids #655-674), phosphorylated by PKA
T5 sequence: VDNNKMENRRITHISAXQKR

[9] = Mono Q purified enzyme, 50 μM Xu-5-P

T1 sequence (P63331 whole entry): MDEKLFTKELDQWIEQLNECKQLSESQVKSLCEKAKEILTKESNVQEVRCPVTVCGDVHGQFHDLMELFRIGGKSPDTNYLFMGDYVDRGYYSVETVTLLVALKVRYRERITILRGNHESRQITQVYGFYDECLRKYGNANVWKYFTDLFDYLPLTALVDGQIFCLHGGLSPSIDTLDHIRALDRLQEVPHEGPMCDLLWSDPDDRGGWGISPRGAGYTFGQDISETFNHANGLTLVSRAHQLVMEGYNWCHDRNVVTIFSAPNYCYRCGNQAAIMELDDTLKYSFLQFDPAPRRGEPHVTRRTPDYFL
T1 sequence (P56932 whole entry partner): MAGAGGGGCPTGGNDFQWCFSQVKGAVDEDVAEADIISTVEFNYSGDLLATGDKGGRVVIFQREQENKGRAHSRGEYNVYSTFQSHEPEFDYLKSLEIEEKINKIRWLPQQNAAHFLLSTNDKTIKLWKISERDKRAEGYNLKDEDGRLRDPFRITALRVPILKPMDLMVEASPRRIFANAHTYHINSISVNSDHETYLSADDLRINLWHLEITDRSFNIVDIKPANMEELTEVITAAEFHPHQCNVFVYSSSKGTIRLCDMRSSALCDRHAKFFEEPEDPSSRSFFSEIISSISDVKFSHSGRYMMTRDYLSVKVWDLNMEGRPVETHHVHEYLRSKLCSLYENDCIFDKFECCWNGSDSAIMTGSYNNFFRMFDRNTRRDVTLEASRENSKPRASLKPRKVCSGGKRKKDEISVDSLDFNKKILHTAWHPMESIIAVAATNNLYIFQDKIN
T1 sequence (Q5XI34 1-589 partner): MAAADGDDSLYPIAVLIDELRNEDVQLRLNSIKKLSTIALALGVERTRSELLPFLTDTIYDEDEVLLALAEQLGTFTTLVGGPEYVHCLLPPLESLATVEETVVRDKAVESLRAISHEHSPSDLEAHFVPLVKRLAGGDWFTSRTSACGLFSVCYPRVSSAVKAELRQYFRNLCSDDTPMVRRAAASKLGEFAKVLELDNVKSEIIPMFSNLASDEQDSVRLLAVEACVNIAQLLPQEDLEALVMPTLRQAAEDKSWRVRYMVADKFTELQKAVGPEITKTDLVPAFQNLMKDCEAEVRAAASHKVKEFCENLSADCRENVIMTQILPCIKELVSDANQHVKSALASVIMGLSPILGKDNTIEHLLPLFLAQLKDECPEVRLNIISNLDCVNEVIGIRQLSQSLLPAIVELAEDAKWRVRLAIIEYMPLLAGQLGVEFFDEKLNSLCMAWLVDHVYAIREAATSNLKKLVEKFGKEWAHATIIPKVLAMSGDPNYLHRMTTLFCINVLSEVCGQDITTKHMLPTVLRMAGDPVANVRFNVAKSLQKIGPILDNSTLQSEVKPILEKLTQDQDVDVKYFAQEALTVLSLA
T2 sequence (P63331 whole entry): as the sequence (P63331 whole entry) above
T2 sequence (P56932 whole entry partner): as the sequence (P56932 whole entry partner) above
T2 sequence (Q5XI34 1-589 partner): as the sequence (Q5XI34 1-589 partner) above
ChREBP (Carbohydrate Response Element Binding Protein) from rat liver (rat), sequence (Q8VIP2 whole entry): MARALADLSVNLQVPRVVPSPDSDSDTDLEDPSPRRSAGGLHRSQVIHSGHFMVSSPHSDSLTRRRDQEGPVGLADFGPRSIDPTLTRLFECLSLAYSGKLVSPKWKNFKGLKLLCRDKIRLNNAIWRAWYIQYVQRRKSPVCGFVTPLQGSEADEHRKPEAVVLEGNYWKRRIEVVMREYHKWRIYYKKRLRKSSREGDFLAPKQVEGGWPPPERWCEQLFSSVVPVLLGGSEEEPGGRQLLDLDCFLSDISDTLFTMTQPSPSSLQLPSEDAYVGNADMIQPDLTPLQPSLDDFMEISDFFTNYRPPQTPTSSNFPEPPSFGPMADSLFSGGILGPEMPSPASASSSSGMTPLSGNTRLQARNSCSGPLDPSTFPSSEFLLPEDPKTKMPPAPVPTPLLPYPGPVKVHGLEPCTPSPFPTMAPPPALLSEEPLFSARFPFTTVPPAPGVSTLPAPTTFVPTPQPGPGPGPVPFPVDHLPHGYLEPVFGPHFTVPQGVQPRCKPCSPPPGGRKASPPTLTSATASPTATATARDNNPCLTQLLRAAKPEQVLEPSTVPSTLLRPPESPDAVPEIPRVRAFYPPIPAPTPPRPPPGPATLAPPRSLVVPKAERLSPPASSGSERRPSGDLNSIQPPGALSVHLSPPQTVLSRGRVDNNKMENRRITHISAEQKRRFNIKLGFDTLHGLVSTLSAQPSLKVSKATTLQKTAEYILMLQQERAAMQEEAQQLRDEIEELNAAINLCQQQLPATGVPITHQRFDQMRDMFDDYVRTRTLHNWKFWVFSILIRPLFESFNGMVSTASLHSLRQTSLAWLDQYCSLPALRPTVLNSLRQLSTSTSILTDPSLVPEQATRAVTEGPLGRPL

Compound: NC(=O)c1ncn([C@@H]2O[C@H](COP(=O)(O)O)[C@@H](O)[C@H]2O)c1N [AICAR, 5-amino-4-imidazolecarboxamide ribotide]
- inhibition of glucose activation of L-PK gene transcription (L-PK gene [1]; AICAR 50 μM): approximately 80%
- inhibition of glucose activation of L-PK gene transcription (L-PK gene [1]; AICAR 200 μM): over 90%

Compound: O=c1c(-c2ccc(O)cc2)coc2cc(O)cc(O)c12 [Genistein]
- transcriptional activity of the L-PK gene in ChREBP-overexpressed hepatocytes (L-PK gene [2]): did not affect

Compound: O=S(=O)(NCCNC/C=C/c1ccc(Br)cc1)c1cccc2cnccc12 [H-89]
- effect on endogenous ChREBP (L-PK transcriptional activity) (L-PK gene [2]; 10 μM H-89, hepatocytes without ChREBP overexpression): stimulated
- transcriptional activity of the L-PK gene in ChREBP-overexpressed hepatocytes (L-PK gene [2]): increased
- nuclear staining rate of GFP-fused ChREBP (GFP-fused ChREBP; 5.5 mM glucose, 10 μM H-89): increased

Compound: CN([C@@H](Cc1ccc(OS(=O)(=O)c2cccc3cnccc23)cc1)C(=O)N1CCN(c2ccccc2)CC1)S(=O)(=O)c1cccc2cnccc12 [KN-62]
- transcriptional activity of the L-PK gene in ChREBP-overexpressed hepatocytes (L-PK gene [2]): did not affect

Compound: COc1cccc(-c2cc(=O)c3ccccc3o2)c1N [PD98059]
- transcriptional activity of the L-PK gene in ChREBP-overexpressed hepatocytes (L-PK gene [2]): did not affect

Compound: O=C(CO)[C@@H](O)[C@H](O)COP(=O)(O)O [Xu-5-P]
- extent of activation of nuclear PPase by Xu-5-P [3, 9]: 1.8 fold
- activation of nuclear PPase, P3 peptide substrate ([3]; crude nuclear extract, added Xu-5-P): activated
- activation of nuclear PPase, P4 peptide substrate ([3]; nuclear extract): activated
- extent of activation of cytosolic PPase by Xu-5-P [4, 9]: 1.8 fold
- activation of P1 dephosphorylation by PPase of desalted cytosolic liver extract ([4]; only metabolite among glycolysis and pentose shunt intermediates examined): able to activate

Compound: CC(=O)O [acetate]
- AMP (cultured hepatocytes): 910 ± 87 nmol/g cells

Compound: CC1(C(=O)O)C2CCC(O2)C1(C)C(=O)O (centres unmarked) [cantharidic acid]
- inhibition of nuclear PPase (in words) [3]: completely inhibited
- transcriptional activity of the L-PK gene in ChREBP-overexpressed hepatocytes (L-PK gene [2]): inhibited
- nuclear staining rate of GFP-fused ChREBP (GFP-fused ChREBP; 500 nM cantharidic acid, 5.5 or 27.5 mM glucose): significantly decreased
- inhibition of cytosolic Xu-5-P activated PPase (in words) [4]: completely

Compound: CC1(C)[C@H](C(=O)O[C@H](C#N)c2cccc(Oc3ccccc3)c2)[C@@H]1C=C(Br)Br [deltamethrin]
- inhibition of nuclear PPase (in words) [3]: not affected
- inhibition of cytosolic Xu-5-P activated PPase (in words) [4]: did not affect

Compound: P1 peptide: synthetic peptide, amino acids #187-201 of ChREBP, YYKKRLRKSSREGDF, phosphorylated by PKA (also: phosphorylated by PKA, site not given here)
- Nuclear PPase activity, +Xu5P ([3]; 50 μM Xu-5-P): 0.93 units/mg
- Nuclear PPase activity, None [3]: 0.55 units/mg
- Cytosol. PPase activity, +Xu5P ([4]; 50 μM Xu-5-P): 11.2 units/mg
- Cytosol. PPase activity, None [4]: 6.2 units/mg

Compound: P3 peptide: synthetic peptide, amino acids #655-674 of ChREBP, VDNNKMENRRITHISAEQKR, phosphorylated by PKA (also: phosphorylated by PKA, site not given here)
- Nuclear PPase activity, +Xu5P ([3]; 50 μM Xu-5-P): 0.94 units/mg
- Nuclear PPase activity, None [3]: 0.52 units/mg
- Cytosol. PPase activity, +Xu5P ([4]; 50 μM Xu-5-P): 11.0 units/mg
- Cytosol. PPase activity, None [4]: 6.0 units/mg

Compound: catalytic subunit of cAMP-dependent protein kinase (PKA) (enzyme)
- reduction in DNA-binding activity of ChREBP after phosphorylation (gel shift) [5]: 90%

Compound: cytosolic Xu-5-P activated PPase (Mono Q purified, rat liver)
- PPase activity (units/mg), +Xu5P (50 µM) [6]: 11.2 units/mg
- PPase activity (units/mg), no Xu-5-P [6]: 6.2 units/mg
- PPase activity (units/mg), +Xu5P (50 µM) [7]: 8.8 units/mg
- PPase activity (units/mg), no Xu-5-P [7]: 5.2 units/mg
- PPase activity (units/mg), +Xu5P (50 µM) [8]: 11 units/mg
- PPase activity (units/mg), no Xu-5-P [8]: 6 units/mg

Compound: nuclear Xu-5-P activated PPase (Mono Q purified, rat liver)
- PPase activity (units/mg), +Xu5P (50 µM) [6]: 0.93 units/mg
- PPase activity (units/mg), no Xu-5-P [6]: 0.55 units/mg
- PPase activity (units/mg), +Xu5P (50 µM) [7]: 0.67 units/mg
- PPase activity (units/mg), no Xu-5-P [7]: 0.39 units/mg
- PPase activity (units/mg), +Xu5P (50 µM) [8]: 0.94 units/mg
- PPase activity (units/mg), no Xu-5-P [8]: 0.52 units/mg
